What was measured:
Assay in all cases: SPR
E4 = target: E4
E2 = target: E2
C11 = target: C11

B1: rituximab, galactosylated afucosylated (G2) glycoform (antibody)
chain 1: QVQLQQPGAELVKPGASVKMSCKASGYTFTSYNMHWVKQTPGRGLEWIGAIYPGNGDTSYNQKFKGKATLTADKSSSTAYMQLSSLTSEDSAVYYCARSTYYGGDWYFNVWGAGTTVTVSA
chain 2: QIVLSQSPAILSASPGEKVTMTCRASSSVSYIHWFQQKPGSSPKPWIYATSNLASGVPVRFSGSGSGTSYSLTISRVEAEDAATYYCQQWTSNPPTFGGGTKLEIK
modifications: N-linked glycan on Asn297: G2 (galactosylated, no core fucose)
Kd (E4): 2.48 µM
Kd (E2): 4.74 µM
Kd (C11): 22.8 µM
